Assay results taken from patent publication US20150175693A1 (UNIVERSIT TSKLINIKUM REGENSBURG, published 2015).

Biological target: T1, IL-3 receptors on human basophils, pDC, monocytes and B cells (PBMC) (human, UniProt P26951 19-378; P32927 17-897)
T1 construct: whole, on cells; Natural receptor on primary human blood cells; the cells were sorted by CD123 and HLA-DR staining; also called CD123
Assay: flow cytometry, biotinylated hIL-3 on human PBMC, avidin-FITC
Procedure: Binding of IL-3 to human peripheral blood mononuclear cells (PBMC) was analysed using commerically available biotinylated IL-3. For the assay, biotinylated IL-3 was incubated with PBMC and binding detected via Avidin-Fluorescein (biotinylated hIL-3 and other reagents obtained from R&D Systems, Inc., Cat. No. NF300).
10 μl of the isolated and incubated PBMC cell preparation (10 Mio. cells/ml) were added to each of the preincubated IL-3/antibody or negative control samples and further incubated for 1 hour at 4° C. For the detection of IL-3 bound to PBMC, 10 μl avidin-FITC reagent together with anti-human CD123 PE-Cy5 (1:10) and anti-HLA-DR II APC (1:50) were added and the samples incubated for a further 30 min at 4° C. Cells were washed twice with 2 ml 1×RDF1 buffer and resuspended in 200 μl of this buffer per sample and FACS analysis performed. Basophils were identified by high expression of CD123 and absence of HLA-DR. Plasmacytoid dendritic cells (pDC) were identified by high expression of CD123 and HLA-DR. Monocytes and B cells were identified by light scatter properties and expression of HLA-DR.

T1 sequence (P26951 19-378, chain 1 of 2): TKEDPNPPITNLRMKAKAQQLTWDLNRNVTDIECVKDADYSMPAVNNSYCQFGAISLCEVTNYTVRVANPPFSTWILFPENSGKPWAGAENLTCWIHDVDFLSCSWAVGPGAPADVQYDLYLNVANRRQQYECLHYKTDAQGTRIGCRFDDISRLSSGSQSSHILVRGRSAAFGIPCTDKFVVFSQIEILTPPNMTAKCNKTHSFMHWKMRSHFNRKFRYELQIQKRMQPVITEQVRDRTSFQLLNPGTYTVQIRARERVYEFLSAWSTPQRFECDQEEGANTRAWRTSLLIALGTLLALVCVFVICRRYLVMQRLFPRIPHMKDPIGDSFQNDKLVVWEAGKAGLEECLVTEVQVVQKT
T1 sequence (P32927 17-897, chain 2 of 2): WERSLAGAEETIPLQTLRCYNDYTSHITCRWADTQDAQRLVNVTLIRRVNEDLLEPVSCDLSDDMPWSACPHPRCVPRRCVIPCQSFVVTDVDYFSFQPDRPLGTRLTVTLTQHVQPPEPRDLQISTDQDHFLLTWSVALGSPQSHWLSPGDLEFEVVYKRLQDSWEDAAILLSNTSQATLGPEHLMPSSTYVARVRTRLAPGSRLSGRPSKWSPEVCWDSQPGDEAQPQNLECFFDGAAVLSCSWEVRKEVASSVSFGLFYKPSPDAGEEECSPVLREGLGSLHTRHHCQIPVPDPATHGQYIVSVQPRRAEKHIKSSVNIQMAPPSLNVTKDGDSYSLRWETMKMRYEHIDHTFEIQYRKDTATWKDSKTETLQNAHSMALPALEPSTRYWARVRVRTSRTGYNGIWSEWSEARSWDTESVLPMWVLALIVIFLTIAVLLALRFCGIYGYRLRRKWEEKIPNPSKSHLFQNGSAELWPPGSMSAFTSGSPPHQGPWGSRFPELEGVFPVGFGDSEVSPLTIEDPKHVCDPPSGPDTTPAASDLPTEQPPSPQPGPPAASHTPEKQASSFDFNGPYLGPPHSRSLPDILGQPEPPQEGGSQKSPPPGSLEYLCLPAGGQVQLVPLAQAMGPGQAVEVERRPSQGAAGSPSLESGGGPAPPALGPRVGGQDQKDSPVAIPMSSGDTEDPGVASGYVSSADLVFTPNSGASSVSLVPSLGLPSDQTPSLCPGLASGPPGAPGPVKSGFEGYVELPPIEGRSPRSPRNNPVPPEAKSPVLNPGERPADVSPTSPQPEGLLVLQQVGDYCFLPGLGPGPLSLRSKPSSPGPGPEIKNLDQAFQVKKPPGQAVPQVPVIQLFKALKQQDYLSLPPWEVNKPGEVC

B1: biotinylated hIL-3 (R&D Systems, Cat. No. NF300) (ligand)
chain: APMTQTTPLKTSWVNCSNMIDEIITHLKQPPLPLLDFNNLNGEDQDILMENNLRRPNLEAFNRAVKSLQNASAIESILKNLLPCLPLATAAPTRHPIHIKDGDWNEFRRKLTFYLKTLENAQAQQTTLSLAIF
modifications: biotinylated (sites not given)
notes: Bought reagent; also called biotinylated IL-3
- binding result: binds
